Source: patent US20240059799A1 (Pfizer, published 2024)
Changes are numbered by the printed parent chain.

T1: recombinant human TL1A (human, UniProt O95150 71-251)
T1 construct: homotrimer; biotinylated for SPR capture; the ELISA paragraphs say only 'recombinant TL1A'; also called TNFSF15
T1 chain: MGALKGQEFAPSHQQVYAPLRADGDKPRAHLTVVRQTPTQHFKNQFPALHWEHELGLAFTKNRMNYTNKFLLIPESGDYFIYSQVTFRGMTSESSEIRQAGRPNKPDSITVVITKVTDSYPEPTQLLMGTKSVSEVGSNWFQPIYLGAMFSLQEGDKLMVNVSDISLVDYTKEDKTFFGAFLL

T2: recombinant human TL1A (human, UniProt O95150 71-251)
T2 construct: Homotrimeric cytokine; biotinylated with Sulfo-NHS-biotin where captured for SPR, coated unlabelled in ELISA, soluble in bioassays; also called TNFSF15
T2 chain: T1 chain

B1: TL1A-0051 (antibody, human IgG1, kappa, V domains shown)
VH: EVQLVESGGGLVQPGGSLRLSCAASGYDFTYYGISWVRQAPGKGLEWVAWISTYNGNTHYARMLQGRFTISRDNAKNSLYLQMNSLRAEDTAVYYCARENYYGSGAYRGGMDVWGQGTTVTVSS
VL: DIQMTQSPSSLSASVGDRVTITCRASQSVSSYLAWYQQKPGKAPKLLIYDASNRATGVPSRFSGSGSGTDFTLTISSLQPEDFATYYCQQRSNWPWTFGQGTKVEIKR
notes: IgG1/kappa; IGHV3-7*01 / IGKV1-39*01 grafts
B2: TL1A-0045 (antibody, human IgG1, kappa, V domains shown)
VH: QVQLVQSGAEVKKPGASVKVSCKASGYDFTYYGISWVRQAPGQGLEWMGWISTYNGNTHYARMLQGRVTMTRDTSTSTVYMELSSLRSEDTAVYYCARENYYGSGAYRGGMDVWGQGTTVTVSS
VL: EIVLTQSPATLSLSPGERATLSCRASQSVSSYLAWYQQKPGQAPRLLIYDASNRATGIPARFSGSGSGTDFTLTISSLEPEDFAVYYCQQRSNWPWTFGQGTKVEIKR
notes: IgG1/kappa; VH graft on IGHV1-46*01
B3: TL1A-0048 (antibody, human IgG1, kappa, V domains shown)
VH: B2 VH with T76I, V79A, S85R, E89D
VL: B2 VL
notes: IgG1/kappa; VH graft on IGHV1-2*02
B4: TL1A-0056 (antibody, human IgG1, kappa, V domains shown)
VH: B2 VH with T76I, V79A, S85R, E89D
VL: B2 VL with L4M, E79Q
notes: IgG1/kappa; IGHV1-2*02 / IGKV3D-7*01 grafts
B5: TL1A-0052 (antibody, human IgG1, kappa, V domains shown)
VH: B2 VH with T76I, V79A, S85R, E89D
VL: B1 VL
notes: IgG1/kappa; IGHV1-2*02 / IGKV1-39*01 grafts
B6: TL1A-0042 (antibody, human IgG1, kappa, V domains shown)
VH: B2 VH with R72T, S77R, V79A, S84R, E89D
VL: B1 VL
notes: TL1A-0002 heavy chain with light chain CDRs grafted on IGKV1-39*01 (DPK9)
B7: TL1A-0043 (antibody, human IgG1, kappa, V domains shown)
VH: B2 VH with R72T, S77R, V79A, S84R, E89D
VL: B2 VL with L4M, E79Q
notes: IgG1/kappa; VL graft on IGKV3D-7*01
B8: TL1A-0053 (antibody, human IgG1, kappa, V domains shown)
VH: B2 VH
VL: B2 VL with L4M, E79Q
notes: IgG1/kappa; IGHV1-46*01 / IGKV3D-7*01 grafts
B9: TL1A-0049 (antibody, human IgG1, kappa, V domains shown)
VH: B2 VH
VL: B1 VL
notes: IgG1/kappa; IGHV1-46*01 / IGKV1-39*01 grafts
B10: TL1A-0047 (antibody, human IgG1, kappa, V domains shown)
VH: B1 VH
VL: B2 VL
notes: IgG1/kappa; VH graft on IGHV3-7*01
B11: TL1A-0055 (antibody, human IgG1, kappa, V domains shown)
VH: B1 VH
VL: B2 VL with L4M, E79Q
notes: IgG1/kappa; IGHV3-7*01 / IGKV3D-7*01 grafts
B12: TL1A-0292 (antibody, human IgG1, kappa, V domains shown)
VH: QVQLVQSGAEVKKPGASVKVSCKASGYDFTYYGVSWVRQAPGQGLEWMGWISTYNTVTHYAPSLQGRVTMTTDTSTSTAYMELRSLRSDDTAVYYCARESYYGSGAFRGGMDVWGQGTTVTVSS
VL: B1 VL
notes: human IgG1 effector-function-minimized/kappa
B13: TL1A-0291 (antibody, human IgG1, kappa, V domains shown)
VH: B12 VH with V57G, P62Q, S63K, F107H
VL: B1 VL
notes: as for B12
B14: TL1A-0303 (antibody, human IgG1, kappa, V domains shown)
VH: B12 VH with V34I, S35G, V57G, F107H
VL: B1 VL
notes: as for B12
B15: TL1A-0294 (antibody, human IgG1, kappa, V domains shown)
VH: B12 VH with V57N
VL: B1 VL
notes: as for B12
B16: TL1A-0308 (antibody, human IgG1, kappa, V domains shown)
VH: B12 VH with V34I, S35G, V57N
VL: B1 VL
notes: as for B12
B17: TL1A-0293 (antibody, human IgG1, kappa, V domains shown)
VH: B12 VH with F107H
VL: B1 VL
notes: as for B12

Biological target: T1, recombinant human TL1A
Experiment: competition ELISA vs bio-TL1A-0002
Description: (§1) For this competition ELISA assay procedure, 96-well high binding plates (Corning, product number 3590) were coated with 1 μg/mL recombinant TL1A in 100 μL/well in Phospate Buffered Saline (PBS) overnight at 4° C. Plates were then blocked in PBS+0.02% casein solution and washed with PBS+0.05% Tween-20 following standard ELISA protocol. […] Plates were washed with PBS+0.05% Tween-20 following standard ELISA protocol, and Streptavidin-HRP (Southern Biotech, product number 7100-05) diluted to 1:10,000 in assay buffer was added to plates and incubated for 25-30 minutes at room temperature. Next, the plates were washed with PBS+0.05% Tween-20 following standard ELISA protocol, and then TMB substrate (BioFX Laboratories, catalog number TMBW-0100-01) was added to plates. Reactions were stopped after approximately 5 minutes by adding 0.18 M ortho-phosphoric acid to each well and absorbance was read at 450 nm.

Going from B1 to B2, the “Bioactivity relative to TL1A-0002” value rises from 1 fold to 1.2 fold.

First: B3
Second: B4
The “Bioactivity relative to TL1A-0002” value of the first is higher: 0.9 fold for the first, 0.8 fold for the second.

Going from B5 to B6, the “Bioactivity relative to TL1A-0002” value rises from 0.8 fold to 0.9 fold.

Going from B7 to B8, the “Bioactivity relative to TL1A-0002” value rises from 0.9 fold to 1 fold.

Going from B9 to B10, the “Bioactivity relative to TL1A-0002” value rises from 1.1 fold to 1.2 fold.

In the case of B11, the “Bioactivity relative to TL1A-0002” value is reported as 1 fold.

B1 and B2 are within 1.5-fold of each other in IC50: 4.5 nM for the first, 5.5 nM for the second.

B3 and B4 are within 1.5-fold of each other in IC50: 4.1 nM for the first, 3.8 nM for the second.

B5 and B6 are within 1.5-fold of each other in IC50: 3.5 nM for the first, 4.2 nM for the second.

B7 and B8 are within 1.5-fold of each other in IC50: 3.9 nM for the first, 4.5 nM for the second.

B9 and B10 are within 1.5-fold of each other in IC50: 4.9 nM for the first, 5.3 nM for the second.

Binder B11 has an IC50 of 4.4 nM.

Biological target: T2, recombinant human TL1A
Experiment: competition ELISA, coated TL1A, competitor bio-TL1A-0002
Description: as §1

Going from B12 to B13, the “Bioactivity relative to TL1A-0002” value falls from 1.9 fold to 1.8 fold.

Compared with B14, B15 is lower in “Bioactivity relative to TL1A-0002” value: 3 fold for the first, 1.6 fold for the second.

Going from B16 to B17, the “Bioactivity relative to TL1A-0002” value falls from 2.8 fold to 1.9 fold.

B12 and B13 are within 1.5-fold of each other in IC50: 9.6 nM for the first, 9 nM for the second.

First: B14
Second: B15
The IC50 of the first is 1.9-fold higher: 15 nM for the first, 8 nM for the second. The second is the more potent here.

B16 and B17 are within 1.5-fold of each other in IC50: 14.2 nM for the first, 9.7 nM for the second.

Biological target: T2, recombinant human TL1A
Experiment: cell-based or functional assay

Compared with B12, B14 is 1.6-fold lower in “TF-1 NF-κB reporter cell bioassay IC50” value: 77.9 nM for the first, 49.4 nM for the second.

B15 and B16 are within 1.5-fold of each other in “TF-1 NF-κB reporter cell bioassay IC50” value: 56.5 nM for the first, 43 nM for the second.

First: B12
Second: B14
The “TF-1 NF-κB reporter cell bioassay, Bioactivity relative to TL1A-0002” value of the first is higher: 2.2 fold for the first, 1.4 fold for the second.

Compared with B15, B16 is lower in “TF-1 NF-κB reporter cell bioassay, Bioactivity relative to TL1A-0002” value: 1.6 fold for the first, 1.2 fold for the second.

B12 and B13 are within 1.5-fold of each other in “Whole blood IFNγ assay IC50” value: 0.95 nM for the first, 0.929 nM for the second.

B14 and B15 are within 1.5-fold of each other in “Whole blood IFNγ assay IC50” value: 1.23 nM for the first, 0.942 nM for the second.

B16 and B17 are within 1.5-fold of each other in “Whole blood IFNγ assay IC50” value: 0.81 nM for the first, 0.986 nM for the second.

B12 and B13 are the same in “Whole blood IFNγ assay, Bioactivity relative to TL1A-0002” value: 1.1 fold for the first, 1.1 fold for the second.

First: B14
Second: B15
The “Whole blood IFNγ assay, Bioactivity relative to TL1A-0002” value of the first is higher: 1.5 fold for the first, 1.1 fold for the second.

First: B16
Second: B17
The “Whole blood IFNγ assay, Bioactivity relative to TL1A-0002” value of the first is lower: 1 fold for the first, 1.2 fold for the second.
